± gives the standard error. For some of these results: Fewer inactive variants are shown than the library holds.
B1: glmS ribozyme (parent)
chain: AUAAAAGCGCCAGAACUACAGAAAUGUAGUUGACGAGGAGGAGGUUUAUCGAAUUUUCGGCGGAUGCCUCCAAA

Tests used:
Details in all cases: with glucosamine-6-phosphate
glucosamine-6-phosphate [1] = variants of: B1; assay: kcat; higher = faster cleavage; RNA array
Outline: (§1)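 The measurements used barcoded ribozyme variants on sequenced MiSeq chips, transcribed in situ by E. coli RNA polymerase and tracked at 37 °C with a hybridised Cy3 probe. Glucosamine-6-phosphate, 40 μM to 10 mM in HEPES/KCl/Mg(OAc)2 buffer, was flowed in while tiles were imaged over ~14 h. Baseline-normalised signals, also normalised to non-cleaving reference variants, gave per-tile medians that were fit to one- or two-exponential decays for kobs. kcat and KM resulted from weighted Michaelis–Menten fits across concentrations.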

glucosamine-6-phosphate [2] = variants of: B1; assay: KM; higher = weaker cofactor use; RNA array
Outline: as §1

glucosamine-6-phosphate [3] = variants of: B1; assay: self-cleavage kobs at 40 uM GlcN6P; higher = faster cleavage; RNA array
Outline: as §1

glucosamine-6-phosphate [4] = variants of: B1; assay: self-cleavage kobs at 160 uM GlcN6P; higher = faster cleavage; RNA array
Outline: as §1

glucosamine-6-phosphate [5] = variants of: B1; assay: self-cleavage kobs at 640 uM GlcN6P; higher = faster cleavage; RNA array
Outline: as §1

glucosamine-6-phosphate [6] = variants of: B1; assay: self-cleavage kobs at 2500 uM GlcN6P; higher = faster cleavage; RNA array
Outline: as §1

glucosamine-6-phosphate [7] = variants of: B1; assay: self-cleavage kobs at 10000 uM GlcN6P; higher = faster cleavage; RNA array
Outline: as §1

Row | Variant | kcat (glucosamine-6-phosphate [1]) | KM (glucosamine-6-phosphate [2]) | self-cleavage kobs at 40 uM GlcN6P (glucosamine-6-phosphate [3]) | self-cleavage kobs at 160 uM GlcN6P (glucosamine-6-phosphate [4]) | self-cleavage kobs at 640 uM GlcN6P (glucosamine-6-phosphate [5]) | self-cleavage kobs at 2500 uM GlcN6P (glucosamine-6-phosphate [6]) | self-cleavage kobs at 10000 uM GlcN6P (glucosamine-6-phosphate [7])
1 | C16A U55C | 0.00122 ± 0.00014 s⁻¹ | 2120 ± 400 µM | 1.93e-05 ± 8.5e-06 s⁻¹ | 7.75e-05 ± 1.1e-05 s⁻¹ | 0.00033 ± 4.4e-05 s⁻¹ | 0.000717 ± 8e-05 s⁻¹ | 0.000949 ± 0.00011 s⁻¹
2 | G26U | 0.0318 ± 0.01 s⁻¹ | 1200 ± 480 µM | 0.00112 ± 7.2e-05 s⁻¹ | 0.00324 ± 0.00048 s⁻¹ | 0.00931 ± 0.0012 s⁻¹ | 0.0179 ± 0.0032 s⁻¹ | 0.0456 ± 0.0065 s⁻¹
3 | G26A | 0.0116 ± 0.0035 s⁻¹ | – | 0.00121 ± 0.00035 s⁻¹ | 0.00345 ± 0.0008 s⁻¹ | 0.0112 ± 0.0022 s⁻¹ | 0.00852 ± 0.0022 s⁻¹ | –
4 | G29A G59C C70G | < 1e-05 s⁻¹ | – | – | – | – | – | –
5 | C16U U65A | 0.00359 ± 0.00068 s⁻¹ | 2370 ± 610 µM | 7.34e-05 ± 1.2e-05 s⁻¹ | 0.000189 ± 2.9e-05 s⁻¹ | 0.000817 ± 0.00011 s⁻¹ | 0.00193 ± 0.00025 s⁻¹ | 0.00276 ± 0.00049 s⁻¹
6 | C16U U65G | 0.0044 ± 0.00062 s⁻¹ | 4300 ± 840 µM | 5.04e-05 ± 6.5e-06 s⁻¹ | 0.000151 ± 1.7e-05 s⁻¹ | 0.000544 ± 7.2e-05 s⁻¹ | 0.00147 ± 0.00018 s⁻¹ | 0.0032 ± 0.00028 s⁻¹
7 | C16U A42C | 1.1e-05 ± 6.5e-07 s⁻¹ | – | – | – | – | – | –
8 | C16U A39G | 0.0255 ± 0.0088 s⁻¹ | 866 ± 400 µM | 0.00133 ± 0.00019 s⁻¹ | 0.00365 ± 0.00075 s⁻¹ | 0.00828 ± 0.0019 s⁻¹ | 0.0177 ± 0.0063 s⁻¹ | 0.0356 ± 0.0085 s⁻¹
9 | C16G C34U | < 1e-05 s⁻¹ | – | < 1e-05 s⁻¹ | < 1e-05 s⁻¹ | < 1e-05 s⁻¹ | – | < 1e-05 s⁻¹
10 | G29A C50A | 1.1e-05 ± 3.2e-06 s⁻¹ | – | – | – | – | – | –
11 | C16G C58A | 0.000242 ± 1.6e-05 s⁻¹ | 3440 ± 410 µM | – | – | 3.73e-05 ± 9.2e-06 s⁻¹ | 0.000104 ± 1.8e-05 s⁻¹ | 0.000178 ± 3.1e-05 s⁻¹
12 | C16U G41U | 0.00145 ± 0.00031 s⁻¹ | 599 ± 170 µM | 9.78e-05 ± 8.3e-06 s⁻¹ | 0.000229 ± 4.6e-05 s⁻¹ | 0.000727 ± 0.00014 s⁻¹ | 0.00155 ± 0.00029 s⁻¹ | 0.00126 ± 0.00027 s⁻¹
13 | C16U U45G | 0.00669 ± 0.00062 s⁻¹ | 2070 ± 280 µM | 0.000135 ± 2.4e-05 s⁻¹ | 0.000468 ± 0.00016 s⁻¹ | 0.00156 ± 0.00026 s⁻¹ | 0.00321 ± 0.00074 s⁻¹ | 0.00593 ± 0.001 s⁻¹
14 | C16U U45C | 0.00254 ± 0.00049 s⁻¹ | 2290 ± 700 µM | 4.44e-05 ± 1.1e-05 s⁻¹ | 0.000307 ± 0.00014 s⁻¹ | 0.000496 ± 0.0001 s⁻¹ | 0.00224 ± 0.0007 s⁻¹ | 0.00203 ± 0.0003 s⁻¹
15 | G29A G44A | 1.73e-05 ± 3.5e-06 s⁻¹ | – | < 1e-05 s⁻¹ | – | – | – | –
16 | G29A C68U | 0.000627 ± 0.0001 s⁻¹ | 1720 ± 550 µM | 2.8e-05 ± 8.3e-06 s⁻¹ | 6.11e-05 ± 8.5e-06 s⁻¹ | 0.000122 ± 2.6e-05 s⁻¹ | 0.000374 ± 4.7e-05 s⁻¹ | 0.000549 ± 5.1e-05 s⁻¹

Row | Variant | kcat (glucosamine-6-phosphate [1]) | KM (glucosamine-6-phosphate [2]) | self-cleavage kobs at 40 uM GlcN6P (glucosamine-6-phosphate [3]) | self-cleavage kobs at 160 uM GlcN6P (glucosamine-6-phosphate [4]) | self-cleavage kobs at 640 uM GlcN6P (glucosamine-6-phosphate [5]) | self-cleavage kobs at 2500 uM GlcN6P (glucosamine-6-phosphate [6]) | self-cleavage kobs at 10000 uM GlcN6P (glucosamine-6-phosphate [7])
17 | G29A C68G | 3.6e-05 ± 1e-05 s⁻¹ | – | – | 2.59e-05 ± 1.2e-05 s⁻¹ | 4.89e-05 ± 9.9e-06 s⁻¹ | 3.97e-05 ± 1.1e-05 s⁻¹ | –
18 | G29A U56G | 0.00237 ± 0.00067 s⁻¹ | 1720 ± 760 µM | 6.78e-05 ± 1.3e-05 s⁻¹ | – | 0.000577 ± 9.1e-05 s⁻¹ | 0.00129 ± 0.00021 s⁻¹ | 0.00257 ± 0.00053 s⁻¹
19 | C16A U56C | 0.000253 ± 8.5e-06 s⁻¹ | 1940 ± 160 µM | < 1e-05 s⁻¹ | – | 6.38e-05 ± 1.8e-05 s⁻¹ | 0.000144 ± 3.2e-05 s⁻¹ | 0.000211 ± 3.4e-05 s⁻¹
20 | A15U U56C | 0.00101 ± 4.2e-05 s⁻¹ | 2320 ± 150 µM | – | 6.26e-05 ± 9.4e-06 s⁻¹ | 0.000221 ± 2.7e-05 s⁻¹ | 0.000551 ± 6.9e-05 s⁻¹ | 0.0008 ± 9.1e-05 s⁻¹
21 | C16A A39C U65G | 5.91e-05 ± 2.8e-05 s⁻¹ | – | – | – | – | 8.69e-05 ± 3e-05 s⁻¹ | –
22 | C16A A36C C71A | < 1e-05 s⁻¹ | – | – | – | – | – | < 1e-05 s⁻¹
23 | C16G G59A | 1.51e-05 ± 3.3e-06 s⁻¹ | – | – | – | – | – | –
24 | G29A C58A | 0.000173 ± 2.2e-06 s⁻¹ | 875 ± 32 µM | – | – | 7.35e-05 ± 1.6e-05 s⁻¹ | 0.000126 ± 2.9e-05 s⁻¹ | 0.00016 ± 3e-05 s⁻¹
25 | C16G C70G | 5.91e-05 ± 5.2e-06 s⁻¹ | – | – | – | 5.48e-05 ± 9.9e-06 s⁻¹ | 6.29e-05 ± 9.7e-06 s⁻¹ | 5.09e-05 ± 9.5e-06 s⁻¹
26 | C16G C70A | 3.75e-05 ± 1.5e-05 s⁻¹ | – | – | – | – | 6.29e-05 ± 1.4e-05 s⁻¹ | 2.51e-05 ± 1.1e-05 s⁻¹
27 | C16G C50U | < 1e-05 s⁻¹ | – | – | < 1e-05 s⁻¹ | – | – | –
28 | C16A C67G | 4.14e-05 ± 5.2e-06 s⁻¹ | – | – | – | 3.73e-05 ± 1.5e-05 s⁻¹ | 2.82e-05 ± 1.1e-05 s⁻¹ | 4.37e-05 ± 8e-06 s⁻¹
29 | C16A G40U | 9.3e-05 ± 2.3e-05 s⁻¹ | – | – | – | 4.49e-05 ± 1.2e-05 s⁻¹ | 0.000122 ± 1.6e-05 s⁻¹ | 7.36e-05 ± 1.2e-05 s⁻¹
30 | C16U C58G | 0.000176 ± 1.3e-05 s⁻¹ | 1730 ± 350 µM | – | – | 4.29e-05 ± 9.1e-06 s⁻¹ | 0.000117 ± 1.6e-05 s⁻¹ | 0.000146 ± 1.3e-05 s⁻¹
31 | G29A G66C | 6.73e-05 ± 1.1e-05 s⁻¹ | 1940 ± 930 µM | – | – | – | 4.16e-05 ± 1.1e-05 s⁻¹ | 5.41e-05 ± 1.4e-05 s⁻¹
32 | C16G U69A | 4.79e-05 ± 1e-05 s⁻¹ | – | – | – | 6.57e-05 ± 1.6e-05 s⁻¹ | 5.05e-05 ± 1.2e-05 s⁻¹ | 3.59e-05 ± 1.2e-05 s⁻¹
